Experimental findings from publication PMC9972897 (Science immunology, 2023) are described below.

Residue numbers refer to the chain shown, from its start. Like-named read-outs stand apart in the source and are kept apart here.

For assay [1], the target named is SARS-CoV-2 S-2P ectodomain trimer (ancestral) (SARS-CoV-2 (ancestral, MN908947), stabilised).
Assay [2] deals with T1, SARS-CoV-2 fusion peptide (FP) coldspot peptide, 812-831 (SARS-CoV-2 (ancestral), biotin-Ahx at the N-terminus; C-terminal amidation).
Assay [3] deals with T2, SARS-CoV-2 S (ancestral), C-terminally truncated, expressed on 293T cells (SARS-CoV-2 (ancestral, Wuhan-Hu-1), UniProt P0DTC2). The experiment in a line: flow cytometry on cells. To be noted: one partner purified.
Assay [4] concerns the target T2, SARS-CoV-2 S (ancestral), C-terminally …. Briefly: cell-based or functional assay.
Assay [5] concerns the target T1, SARS-CoV-2 fusion peptide (FP) coldspot …. Briefly: crystal structure. Particulars: both partners purified.
In assay [6] the target is SD1-RBD of SARS-CoV-2 S (ancestral), aa 319-591 (SARS-CoV-2, ancestral (Wuhan-Hu-1; …, UniProt P0DTC2). Briefly: SPR. Particulars: both partners purified.

B1: fp.004 (antibody, V domains shown)
VH: VQLVESGGGVVQPGTSLRLSCVASGFTFSNYAMHWVRQAPGKGLEWVAIISFDTRNTASAASVKGRFNISRDNSKNSLYLQMNSLRPEDTGVYYCARDLFLSDYDSRGYDPITGGFDCWGQGTLVTVSS
VL: EIVMTQSPAALSVSPGEGATLSCRASQSVGSRLAWYQQKLGRPPRLLIYGASTRATGIPARFSGSGSGTEFTLTISSLQSEDFAVYYCQQYNDWPLLTFGGGTKVKIK
As for B1, the binding result in assay [1] and in assay [2] was “binds” in each case.

B2: fp.007 monoclonal antibody (IgG) (antibody, V domains shown)
VH: EVQLVESGGGLVKPGGSLRLSCAGTGFIFSDAWMTWVRQAPGKGLEWVGRIKSKADGGTTDYAAPVKGRFTISRDDSKNTLYLEINSLKTEDTAVYYCTTGRSRYCIGAVCYYFDHWGQGTLVTVSS
VL: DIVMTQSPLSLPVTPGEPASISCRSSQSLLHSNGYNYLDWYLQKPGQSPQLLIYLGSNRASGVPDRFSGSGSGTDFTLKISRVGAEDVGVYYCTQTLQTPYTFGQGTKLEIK
Consider B2, for which the binding result in assay [3] is “binds”.

B3: hr2.023 monoclonal antibody (IgG) (antibody, V domains shown)
VH: QVQLVQSGAEVKKPGASVKVSCRASENIFSDSYLHWVRQAPGQGLEWMGIITPSGDKTFYAQQFQGRLTMTRDTPTNTLHMDLRGLTSADTAIYYCARQATKGGWDYWGQGTLVTVSS
VL: EIVLTQSPGTLSLSPGESATLSCRASQSVTRNYLAWYQQQPGQAPRLLIYGASNRATGVPDRFSGSGSGTDFTLTISRLEPEDFAVYYCQQYGSSPPTFIFGPGTKVDIK
Regarding B3, the “fold increase of binding (gMFI) with soluble ACE2” value (“fold increase of binding (gMFI)” below) in assay [3] amounted to 2.4 fold.

B4: fp.002 (antibody, V domains shown)
VH: VQLVESGGGVVQPGTSLRLSCAGSGFNFDNYAIHWVRQAPGQGLEWVAIISYEARNKKYAGSVTGRFSISRDNSKSMVYLQMDSLRGEDTAVYYCARDLFLSDYDRSGYDPTRGGFDLWGQGTLVTVSS
VL: EIVMTQSPATLSVSPGERATLSCRASQSVSSSLAWYQHKLGQAPRLLIYGASTRATGIPGRFSGSGSGTEFTLTISSLQSEDVAIYYCQQYGDWPLVTFGGGTKVEIK
Turning to B4, the binding result in assay [1] and in assay [2] was “binds” in each case.

B5: fp.005 (antibody, V domains shown)
VH: VQLVESGGGVVQPGNSLRLSCAASGFRFNNYAMHWVRQAPGKGLEWVAIISYEARNEKYADSVKGRFSISRDNAKNTLYLQMNSLRADDTGVYYCARDLFLSDYDTSGYDRTRGGFDYWGQGALVTVSS
VL: B4 VL with S31N, S32G, K39R, L40F, A43P, G60T, V83F, I85V, G92D, V97I
As for B5, the binding result in assay [1] and in assay [2] was “binds” each time.

B6: fp.009 (antibody, V domains shown)
VH: VQLVESGGGVVQPGTSLTLSCEASGFTFSNYAMHWVRQAPGKGLEWVAIISFDTRNKKFAGSVQGRFSISRDNAKNSIYLQMNNLRPEDTGIYYCARDVFLSDYDSRGFDRTRGGFDYWGQGTLVTVSS
VL: B4 VL with R18K, Q27E, S30G, H38Q, G60A, T69A, V83F, V97L
Regarding B6, the binding result in assay [1] and in assay [2] was “binds” throughout.

B7: fp.008 (antibody, V domains shown)
VH: VQLVESGGGVVQPGRSLRLSCRASGFRFNNYAMHWVRQAPGKGLEWVAIISYEARNEKYAASVKGRFSISRDNAKNTLYLQMNSLRPEDTAIYYCARDVFLSDYDQSGYDVTRGGFDYWGQGTLVTVSS
VL: B4 VL with R18S, L40F, G60D, T69M
For the molecule B7, the binding result in assay [1] and in assay [2] was “binds” in each case.

B8: fp.006 monoclonal antibody (IgG) (antibody, V domains shown)
VH: EVQLVESGGGVVQPGGSLRLSCAASGFNFNNYALHWVRQAPGKGLEWVAIISYEARNKKYGVSVMGRFSISRDNSKSIMYLEMNSLRVEDTGVYYCARDLFLSDYDRSGYDPTRGGFDHWGQGTLVTVSS
VL: B4 VL with K39R, L40F, Y49S, I85V
Turning to B8, the “IC50 of neutralisation of SARS-CoV-2 pseudovirus” value (shortened to “IC50”) in assay [4] was found to be 0.737 µg/mL. Besides, in assay [3], the “fold increase of binding (gMFI)” value was 5.8 fold.

B9: fp.006 Fab (Fab, V domains shown)
VH: B8 VH
VL: B4 VL with K39R, L40F, Y49S, I85V
Take B9: the binding result in assay [5] is reported as “binds”.

B10: hr2.016 monoclonal antibody (IgG) (antibody, V domains shown)
VH: EVQLLESGGGLVQPGGSLRLSCAASGFMFSKYAMTWVRQTPGKGLEWVSVISGGGGSTYYADSVKGRFTISRDNSKNTLYLQMNSLRAEDTAVYYCAKLLVVFVIDYWGQGALVTVSS
VL: EIVLTQSPGTLSLSPGERATLFCRASQSVSSNLAWYQQKPGRAPRLLISGASSRATGIPDRFSGSGSGTDFTLTISRLEPEDFAVYYCQQYGSSPPTFGQGTKVEIK
As to B10, in assay [4], the “IC50” value amounted to 0.01 µg/mL. Further, in assay [3], the “fold increase of binding (gMFI)” value worked out at 2.3 fold.

B11: fp.001 (antibody, V domains shown)
VH: VQLVESGGGVVQPGRPLRLSCSGSGFIFSNYAMHWVRQAPGKGLEWVAIISFDARNKRYADSVEGRFTISRDNSKNILYLQMNSLRLEDSAVYFCARDLFLSDYDNGVYDPTRGGFDYWGQGTLVTVSS
VL: EIVMTQSPATLSLSPGERATLSCRASQSVNNRLAWYQQKLGQPPRLLISGASTRATGIPARFTGSGSGTEFTLTISSLQSEDFAVYYCQQYHDWPLLSFGGGTKVEIK
Turning to B11, the binding result in assay [1] and in assay [2] was “binds” throughout.

B12: fp.003 (antibody, V domains shown)
VH: VQLVESGGGVVQPGTSLRLSCTASGFSFSNYAMHWVRQAPGKGLEWVAIISFDTRNKEFADSVKGRFSISRDNSKNSLNLQMNSLRPEDTGVYYCARDLFLSDYDSRGYEPSRGGFDYWGQGTLVTVSS
VL: B1 VL with A10T, G18R, G30S, R32S, R42Q, Q79K, F83S, T98S, K106E
With B12, the binding result in assay [1] and in assay [2] was “binds” in each case.

B13: fp.011 (antibody, V domains shown)
VH: EVQLLESGGGLVQPGGSLRLSCAGSGFTFNNYAMTWVRQAPGRGLEWVSAISGSGGSSHYADSVKGRFTITRDNSKNTLYLQMNSLRAEDTAVYYCAFIDYYSGWSYYYGLDVWGQGTTVTVSS
VL: EIVLTQSPATLSLSPGERATLSCRASQGVRTYVAWYQQKPGQAPRLLIYDASNRATGIPARFSGSGSGTDFTLTISSLEPEDFAVYYCQQRYNWPLCSFGQGTKLEIK
With B13, the binding result in assay [2] was “binds”.

B14: sd1.040 monoclonal antibody (IgG) (antibody, V domains shown)
VH: QVQLVQSGAEVKKPGASVKVSCKASGYTFTSFYIHWVRQAPGQGLEWMGIIDPSGGSTSYPQKFQGRVTMTRDTSTSTVYMDLSSLRSEDTAVYYCTRDGSAGDNSWFDPWGQGTLVTVSS
VL: not shown
With B14, the “IC50” value in assay [4] was 0.245 µg/mL.

B15: sd1.040 Fab (Fab, V domains shown)
VH: B14 VH
VL: not shown
In assay [6], B15 yielded an equilibrium dissociation constant (Kd) of 4.2 nM.
